Where no end group is shown, it is not given here.
Target: HIV-1 integrase (IN) (HIV-1)

FIHFRIG-NH2 [peptide 1b (FIHFRIG-amide)] showed a 3'-P IC50 (in vitro IN 3'-processing assay) of 31.5 µM and an ST IC50 (in vitro IN strand transfer assay) of 7.3 µM.

Ac-FIHFRIG-NH2 [peptide 1c (Ac-FIHFRIG-amide)] showed a 3'-P IC50 (in vitro IN 3'-processing assay) of 23.5 µM and an ST IC50 (in vitro IN strand transfer assay) of 4.7 µM.

Reference: PMC6222646, “HIV-1 Integrase-Targeted Short Peptides Derived from a Viral Protein R Sequence” (Molecules : A Journal of Synthetic Chemistry and Natural …, 2018)
